Measurements: US20210253725A1 (BIONTECH, published 2021)

B1: P018.S.13.A.C02 (antibody, V domains shown)
VH: QSVEESGGRLVTPGTPLTLTCTVSGFSLSSYAMSWVRQAPGKGLEWIGIISTSGITYYASWAKGRFTISKTSTMVDLKITSPTTEDTATYFCARLNGFDDYVRYFDFWGLGTLVTVSS
VL: AIELTQTPSSVSAAVGGTVTINCQASESIASNLAWYQQKPGQPPKLLIYAASYLASGVPSRFKGSGSGTEYTLTISGVQSADAATYYCQSAFYVSSSDNAFGGGTEVVVK
notes: V regions on human Ig constant parts; also called AB137_6
B2: P018.S.13.A.G03 (antibody, V domains shown)
VH: QSLEESGGRLVTPGTPLTLTCTASGFSLSSYDVSWVRQAPGKGLEYIGFIGSDGSAHYATWVKGRFTISKTSTTVDLKITSPTTEDTATYFCARDWNDYWAHDLWGPGTLVTVSS
VL: AQVLTQTTSPVSAAVGGTVTINCQASQIVTSKSALSWYQQKPGQPPRLLIYKASTLASGVPSRFSGSGSGTQFTLTISDLESDDAATYYCAGGYYNSGDLNPFGGGTEVVVK
notes: V regions on human Ig constant parts; also called AB137_7
B3: P018.S.13.A.A06 (antibody, V domains shown)
VH: QSVEESGGRLVTPGTPLTLTCTASGFTISDFHVTWVRQAPGKGLEWIGTIITSASTTAYATWARGRFTISKSSTTVNLKIVSPTTEDTATYFCARSTYTDTSGYYFDFWGQGTLVTVSS
VL: AQVLTQTASPVSAAVGGTVIINCQSSQSIYNGNRLSWYQQKPGQPPKLLIYSASTLASGVSSRFKGSGSGTQFTLAISDVQSDDAATYYCLGSYDCDSADCFAFGGGTEVVVE
notes: V regions on human Ig constant parts; also called AB137_5
B4: P018.S.14.A.D06 (antibody, V domains shown)
VH: QSVEESGGRLVTPGTPLTLTCTVSGFSLSTYAMIWVRQAPGKGLEWIGVVYDNGYISHATWVKGRFTISKTSTTVGLEITSPTTEDTATYFCARSADGSWSTYFNLWGQGTLVTVSS
VL: DIVMTQTPASVEAAVGGTVTIKCQASESISNYLAWYQQKPGQPPKLLIYKASTLASGVSSRFKGSGSGTEFTLTISDLESADAATYYCQTNYCCSSSDNGFAFGGGTEVVVK
notes: V regions on human Ig constant parts; also called AB137_10
B5: P018.S.14.A.G03 (antibody, V domains shown)
VH: QSLEESGGRLVTPGTPLTLTCTVSGIDLSSYHMCWVRQAPGKGLEYIGYIAYGGNTYYANWAKGRFTISKTSTTVDLRITSPTTEDTATYFCARGYSEDSYWGLWGPGTLVTVSS
VL: AYDMTQTPASVEAAVGGTVTIKCQASQNIENYLAWYQQKPGQPPKLLIYDTSKLTSGVPSRFSGSGSGTDFTLTISGVQSDDAATYYCQQDYGIIFVDNIFGGGTEVVVK
notes: V regions on human Ig constant parts; also called AB137_11
B6: P018.S.08.A.E03 (antibody, V domains shown)
VH: QSVEESGGRLVTPGTPLTLTCTVSGFSLTYYAVTWVRQPPGKGLEWIGVIYDNGATAFATWAKGRFTMSKNSTTVALKVTSPTTEDTATYFCARSANNAWSTYSNLWGQGTLVTVSS
VL: DIVMTQTPSSVSAAVGGTVTINCQASEDISSYLSWYQQKLGQPPKLLIYKASTLESGVPSRFKGSGSGTEYTLTISDLESDDAATYYCQSYYSGSISGYGFVFGGGTGVVVK
notes: V regions on human Ig constant parts; also called AB137_2
B7: P018.S.08.A.A04 (antibody, V domains shown)
VH: QSVEESGGRLVTPGTPLTLTCTVSGFSLSSYAVSWVRQAPGKGLEWIGVIWNNGATHYATWAKGRFTISKASTTVDLKVTSPTTEDTATYFCARSANDAWSTYSDLWGQGTLVTVSS
VL: DIVMTQTPASVEAAVGGTVTIKCQASQTITNYLSWYQQKPGQPPKLLIYKASTLTSGVSSRFKGSGSGTEFTLTISDLESDDAATYYCQNYYYGSSSGYGFVFGGGTEVVVK
notes: V regions on human Ig constant parts; also called AB137_1
B8: P018.S.08.A.F03 (antibody, V domains shown)
VH: QSVEESGGRLVTPGTPLTLTCTASGFTISSYHMIWVRQAPGEGLEWIGDIYGGTATTDYASWAKGRFTISKTSTTVDLKMTSLTTEDTATYFCARARYSGGSYANYVFNLWGQGTLVTVSS
VL: DIVMTQTPASVEAAVGGTVTIKCQASQSISSYLAWYQQKPGQPPKLLIYRTSTLESGVPSRFKGSGSGTEFTLTISDLESADAATYYCQGYDWSSSNRYDNTFGGGTEVVVK
notes: V regions on human Ig constant parts; also called AB137_3
B9: P018.S.13.A.G04 (antibody, V domains shown)
VH: QSLEESGGRLVTPGTPLTLTCTASGFSLSSYDMSWVRQAPGKGLEYIGYISSSGNTYYASWAKSRFTISKTSTTVDLKITSPTTEDTATYFCAREGDYWDFNLWGPGTLVTVSS
VL: AQVLTQTPSSVSAAVGGTVTINCQASQSISNLLAWYQQKPGQRPRLLIYRASTLASGVPSRFKGSGSGTEFTLTISDLESEDAATYYCAGGFPGLDTGATFGGGTEAVVT
notes: V regions on human Ig constant parts; also called AB137_8
B10: P018.S.14.A.A04 (antibody, V domains shown)
VH: QSLEESGGRLVTPGTPLTLTCTVSGFSLNDYWMSWVRQAPGKGLEWIGYIDVGGSLYYASWAKGRFTISRTSTTVDLKMTSLTTEDTATYFCARGGLTYGFDLWGPGTLVTVSS
VL: DIVMTQTPASVSEPVGGTVTINCQASEDISSYLAWYQQKPGQRPKRLIYGASDLASGVPSRFSASGSGTEYALTISDLESADAATYYCHYYATISGLGVAFGGGTEVVVK
notes: V regions on human Ig constant parts; also called AB137_9
B11: P018.S.14.A.H01 (antibody, V domains shown)
VH: QSVEESGGRLVTPGTPLTLTCTVSGFSLSDYYMTWVRQAPGKGLEYIGIMSGSGSTYYASWAKGRFTISKTSSTTLELKITSPTTEDTAIYFCARDGDYAGWGYATGAFDPWGPGTLVTVSS
VL: AAVLTQTPSPVSAAVGGTVTISCQASQSVVGNSLLSWFQKKPGQPPKLLIYSASSLASGVPSRFKGSGSGTQFTLTISDLESDDAATYYCTGRYNSDTDTFVFGGGTEVVVK
notes: V regions on human Ig constant parts; also called AB137_12
B12: P018.S.05.A.G03 (antibody, V domains shown)
VH: QEQLVESGGGLVQPEGSLTVTCTASGFSFSNSYWMCWVRQAPGKGLEWIACIYLGSAGTTHHATWAKGRFTISKTTSTTVTLQMTSLTAADTATYFCARAGHDYWGAYHTLWGPGTLVTVSS
VL: DVVMTQTPASVSEPVGGSVTIKCQASQNIDNTLAWYQQKAGQPPKLLIYHASTLASGVPSRFRGSGSGTDFTLTISDLESADAATYYCQCPYYGSTYVYSFGGGTEVVVK
Throughout, for Functional assay Cross-linked by F(ab′)2 fragment IL-8: test concentration or dose not given here.
Throughout, for Functional assay IL-8: test concentration or dose not given here.

The binders below were run against T1, CD137 protein (His-tagged, Sino Biological Inc. 10041-H08H) (human, UniProt Q07011 24-186) (assay: ELISA, coated His-tagged CD137; note: test concentration or dose not given here).
T1 construct: bought protein coated on ELISA plates; also called 4-1BB; TNFRSF9; not shown: His tag
In the case of B1, the “ELISA [abs. corr.]” value is reported as 2.55 abs. corr. B2 was tested, and the “ELISA [abs. corr.]” value was 1.73 abs. corr. With B3 the “ELISA [abs. corr.]” value was 3.39 abs. corr. With B4 the “ELISA [abs. corr.]” value was 2.9 abs. corr. B5 was tested, and the “ELISA [abs. corr.]” value was 2.07 abs. corr. For B6, the “ELISA [abs. corr.]” value was 3.05 abs. corr. With B7 the “ELISA [abs. corr.]” value was 3.42 abs. corr. With B8 the “ELISA [abs. corr.]” value was 2.33 abs. corr. B9 was tested, and the “ELISA [abs. corr.]” value was 0.577 abs. corr. For B10, the “ELISA [abs. corr.]” value was 3.44 abs. corr. With B11 the “ELISA [abs. corr.]” value was 2.97 abs. corr.

What follows are binders tested against CD134 expressed on the cell surface of HT1080_OX40 cells (human) (UniProt P43489) (assay: HT1080_OX40 cells, imaging).
Chain of CD134 expressed on the cell surface of HT1080_OX40 cells (human) (P43489 29-277): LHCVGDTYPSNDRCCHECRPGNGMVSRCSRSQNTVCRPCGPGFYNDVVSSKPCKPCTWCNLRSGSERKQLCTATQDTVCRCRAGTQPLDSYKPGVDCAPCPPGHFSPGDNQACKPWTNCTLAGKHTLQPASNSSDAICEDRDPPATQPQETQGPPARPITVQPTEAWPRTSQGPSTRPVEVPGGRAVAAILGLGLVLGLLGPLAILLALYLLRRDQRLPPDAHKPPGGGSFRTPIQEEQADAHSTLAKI
With B12 the Cellular binding assay [RFU] was 40 RFU.

These binders were tested against CD134 expressed on the cell surface of HT1080_OX40 cells (human) (UniProt P43489) (assay: cell-based or functional assay).
Binder B12 has an EC 50 (IL-8 release, cross-linked) of 0.966 µg/mL, a Functional assay Cross-linked by F(ab′)2 fragment IL-8 of 2.39 abs. corr and a Functional assay IL-8 of 0.032 abs. corr.

What follows are binders tested against T2, CD137 expressed on the cell surface of HT1080_4-1BB cells (human, UniProt Q07011 24-255) (assay: cell-based or functional assay).
T2 sequence (Q07011 24-255): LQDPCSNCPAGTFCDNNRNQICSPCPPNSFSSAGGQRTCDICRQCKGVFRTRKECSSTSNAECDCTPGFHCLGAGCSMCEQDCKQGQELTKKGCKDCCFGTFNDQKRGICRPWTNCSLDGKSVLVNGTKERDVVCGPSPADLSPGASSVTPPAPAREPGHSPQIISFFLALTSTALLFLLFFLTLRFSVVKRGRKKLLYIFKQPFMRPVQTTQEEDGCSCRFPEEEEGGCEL
B1 was tested, and the “Functional assay Cross-linked by F(ab′)2 fragment IL-8” value (“Functional assay Cross-linked” below) was 1.4 abs. corr and the “Functional assay IL-8” value was 0.113 abs. corr. In the case of B2, the “Functional assay Cross-linked” value is reported as 0.789 abs. corr and the “Functional assay IL-8” value is reported as -0.164 abs. corr. With B3 the “Functional assay Cross-linked” value was 1.71 abs. corr and the “Functional assay IL-8” value was -0.153 abs. corr. For B4, the “Functional assay Cross-linked” value was 1.52 abs. corr and the “Functional assay IL-8” value was -0.011 abs. corr. For B5, the “Functional assay Cross-linked” value was 1.14 abs. corr and the “Functional assay IL-8” value was 0.222 abs. corr. In the case of B6, the “Functional assay Cross-linked” value is reported as 2.02 abs. corr and the “Functional assay IL-8” value is reported as -0.304 abs. corr. With B7 the “Functional assay Cross-linked” value was 1.55 abs. corr and the “Functional assay IL-8” value was 0.368 abs. corr. In the case of B8, the “Functional assay Cross-linked” value is reported as 1.36 abs. corr and the “Functional assay IL-8” value is reported as -0.346 abs. corr. For B9, the “Functional assay Cross-linked” value was 1.8 abs. corr and the “Functional assay IL-8” value was -0.179 abs. corr. With B10 the “Functional assay Cross-linked” value was 0.972 abs. corr and the “Functional assay IL-8” value was 0.785 abs. corr. For B11, the “Functional assay Cross-linked” value was 2.19 abs. corr and the “Functional assay IL-8” value was 2.02 abs. corr.

Each binder was assayed against T2, CD137 expressed on the cell surface of … (assay: HT1080_4-1BB cells, imaging; note: test concentration or dose not given here).
In the case of B1, the “Cellular binding assay [RFU]” value is reported as 8 RFU. For B2, the “Cellular binding assay [RFU]” value was 13 RFU. For B3, the “Cellular binding assay [RFU]” value was 38 RFU. For B4, the “Cellular binding assay [RFU]” value was 1 RFU. B5 was tested, and the “Cellular binding assay [RFU]” value was 19 RFU. With B6 the “Cellular binding assay [RFU]” value was 9 RFU. With B7 the “Cellular binding assay [RFU]” value was 46 RFU. In the case of B8, the “Cellular binding assay [RFU]” value is reported as 7 RFU. In the case of B9, the “Cellular binding assay [RFU]” value is reported as 1 RFU. B10 was tested, and the “Cellular binding assay [RFU]” value was 81 RFU. For B11, the “Cellular binding assay [RFU]” value was 6 RFU.
